This note sets out measurements from paper PMC8287548.

Assay [1] has as its target SpyCatcher-HPF (not stated | Helicobacter pylori). Briefly: SPR. On the technique in general: In SPR one partner is held on a chip, and binding of the other changes the refractive index at the surface.
Assay [2] has the same target. The assay can be described thus: covalent conjugation.

On to “SpyTag-RBD (from UniProt P0DTC2 319-541)”, for which the dissociation constant Kd – broadly, the concentration at which binding is half-saturated – in assay [1] was found to be 2680 nM. This substance showed a conjugation efficiency in assay [2] of less than 40%.
